# In the supplement of paper PMC12764529:
# ± gives the half width of the 95% confidence interval.
# How the values were obtained:
# [1] = folding stability dG unfold from trypsin proteolysis; higher = more stable
# Outline: (§1)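 K50 was inferred by Bayesian fitting of sequencing counts obtained after protease digestion of designed mini-proteins. Unfolding free energy was derived by comparison with a sequence-predicted unfolded-state K50 and a shared folded-state K50, for each protease or both combined. The mini-proteins were under 80 residues, had no cysteine, were carried in a PA-tagged cDNA display construct, and were kept only if AlphaFold2 dimer inter-PAE exceeded 15.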
# [2] = folding stability dG unfold from chymotrypsin proteolysis; higher = more stable
# Outline: as §1
# [3] = folding stability dG unfold (combined trypsin and chymotrypsin); higher = more stable
# Outline: as §1
Sequence,folding stability dG unfold [1] [kcal/mol],folding stability dG unfold [2] [kcal/mol],folding stability dG unfold [3] [kcal/mol]
SAGGSAMSPEEVEEKIKEIAKKLGVEIEVKVEISPEGGIKITVKVNDKFDINEIKKGIEEALGIKLSAGGSA [r15_807_JUSTAS],4.4 ± 0.55,2.65 ± 0.16,3.94 ± 0.45
SAGGSAGGSAGGMTTTTVSRSPDGTITTTTTTYVPTPDGSVVPVTTTTTTTPIDPAALSSAGGSAGGSAGGS [r10_991_JUSTAS],1.45 ± 0.046,1.39 ± 0.017,1.42 ± 0.036
SAGGSKVTLEVNEDGTVTLTVTRPDGKKVTLTITKNEDGTYTIRDEETGKTITVPAGMSIEELLKASAGGSA [r2_338_TrROS_Hall],3.69 ± 0.12,5.17 ± 0.14,5.09 ± 0.1
SAGGSAGGVVLEVEIPYESEEEAREKAEEVLKELGLPESAKITKIEFYPGPGEKKSVKVYIKLESAGGSAGG [r6_284_JUSTAS],1.92 ± 0.06,1.73 ± 0.018,1.83 ± 0.059
SAGGYVRIRIELQEKRKPPDGKQQQRKKKITITVRLPPNEEMRMPDGKDIDPGKSAEELADYALDNLSAGGS [r16_440_TrROS],2.16 ± 0.08,1.68 ± 0.077,1.92 ± 0.15
SAGGSAGGSAGGNNLYSTSTTVLSTVPVRPDETVTRPGTGAPVSPSETVALSTTSTAPSLSAGGSAGGSAGG [r11_793_JUSTAS],0.629 ± 0.026,-0.729 ± 0.081,0.246 ± 0.054
SAGGSVEIWILLPPNNPDLDKIREKLRDEPGIDDVNVKVVKPTPGYWVFEIEVNGDPEVADKIRDLISAGGS [r16_394_TrROS],1.09 ± 0.1,1.61 ± 0.18,1.51 ± 0.26
SAGGSAGGSAKPNKKFKFELVEVKEIEIYDKETNEKVYKISVAKVRLEDGSLLTFISIEEKSAGGSAGGSAG [r3_166_TrROS_Hall],2.34 ± 0.085,3.78 ± 0.059,3.19 ± 0.22
SAGGSATIEEIANMPAEEIAQEHGMEVKDVDIERVPNGTITVEVEYEPPDGKKHKHTFQIKIDEGQSAGGSA [r15_805_TrROS],0.089 ± 0.1,0.251 ± 0.11,0.284 ± 0.2
SMKVVKLYTDPEGRVVIEITLPKPDGTPVSEEEAKAIADEIAAELKPKYPNATFEITYDPKTGVVTITIGSA [r9_485_JUSTAS],3.49 ± 0.13,2.51 ± 0.053,2.97 ± 0.1
SAGGSAGGSASSSSSIKFLSEEEIKLPDGTPVKVKIYKDPSNNKEYLYLPESKVWLPISKISAGGSAGGSAG [r3_181_JUSTAS],1.41 ± 0.033,1.74 ± 0.037,1.67 ± 0.1
SAGGSAGGSAGGPKAPGDKAVPATVEVRVTEYAVVPGLGEKLEKLPEKTFKATFVFFNKSAGGSAGGSAGGS [r10_122_TrMRF],-0.48 ± 0.26,0.611 ± 0.11,0.286 ± 0.092
SAGGSAGGSEPVVIKVTVTNENGEKRTITLPEIEVEPGETIEEIAAALAAEPGVKEVKVEVVPSAGGSAGGS [r12_199_TrROS_Hall],0.702 ± 0.022,0.444 ± 0.039,0.605 ± 0.069
SAGGSAGGSAGSMIEEAVEAAKASGDPDVTVDLETPEGRVTVTVTVDPATGTVTVTTSPESAGGSAGGSAGG [r17_475_JUSTAS],1.21 ± 0.033,2.21 ± 0.077,1.86 ± 0.091
SAGGSAGGSEATLEVEVRVDGVLVRVRVEYDLETQELRIEVEVRPLPPPPVEVRTEYRSLEDLSAGGSAGGS [r12_813_TrROS_Hall],1.23 ± 0.052,1.59 ± 0.26,1.5 ± 0.27
SAGGSAGGSPVFESPEQAKAFLDNVPADSTVLIAVKNPETGEWQLFVVKVPPKRPVGYPGDKDSAGGSAGGS [r12_393_TrMRF],1.08 ± 0.065,1.79 ± 0.072,1.56 ± 0.085
SAMIEIEIEVEEREDGRLIVRVRIRNKETGEEIELELEMSREEVEKLLEELKKLFPNLEIVEVEIRELPSAG [r14_969_TrROS_Hall],4 ± 0.15,3.29 ± 0.24,3.98 ± 0.45
SAGGAPVTTFSLTLENPETGLNWTSTSATYDPATGTLTLNLKRPQSGESLTLTTPVTVVSPEEPELASAGGS [r8_193_JUSTAS],0.699 ± 0.052,0.819 ± 0.084,0.813 ± 0.11
SWQIKEVFPLPNGMRIKVYIHPDGYVQVSIRMYRPNPNDGKPQRQRFSITVPLPPGKPPSIDDILDYILNSA [r9_614_TrROS],2.36 ± 0.051,2.24 ± 0.21,2.44 ± 0.22
SAGGSADKITVRVMPSPDGMYRVKIWHPGKKREYWMNPDDPDKMLEEFADEINPDRPIKVEVEPYKSAGGSA [r15_925_TrROS],-0.919 ± 0.87,0.913 ± 0.16,0.467 ± 0.18
SAGGGEKWKIKFKDAEAYINAPEGKVEIVPPDGSKITIDFPPDIPPEVVAKLLAEELGFDEAEIEPVESAGG [r13_852_TrMRF],-0.263 ± 0.085,0.357 ± 0.13,0.168 ± 0.14
